# Test results published in US20230212319A1, “NOVEL ANTIGEN BINDING DOMAINS AND SYNTHETIC ANTIGEN RECEPTORS INCORPORATING THE SAME” (University of Southern California, priority 2020, published 2023).
# B1: 22066 (protein)
# chain: MALPVTALLLPLALLLHAARPQLQLQESGPGLVKPSETLSLTCTVSGDSISSGDYYWGWIRQPPGKGLEWIGHIYYSGVTYYNPSLKSRVTISVDTSRNQFSLKLSSVTAADTAVYYCTREDSSNWRSRGQGTLVTVSSLEVAALEREDLKNVFPPEVAVFEPSEAEISHTQKATLVCLATGFYPDHVELSWWVNGKEVHSGVCTDPQPLKEQPALNDSRYCLSSRLRVSATFWQNPRNHFRCQVQFYGLSENDEWTQDRAKPVTQIVSAEAWGRADCGFTSESYQQGVLSATILYEILLGKATLYAVLVSALVLMAMVKRKDSRGRAKRSGSGATNFSLLKQAGDVEENPGPTSMDWIWRILFLVGAATGAHSFEVQLLESGGGLIQPGGSLRLSCAASGFTFSSHAMTWVRQAPGKGLEWVSAISGSGDYTHYADSVKGRFTISRDNSKNTVYLQMNSLRAEDSAVYYCAKDEDGGSLLGHRGQGTLVTVSSTRIQNPDPAVYQLRDSKSSDKSVCLFTDFDSQTNVSQSKDSDVYITDKCVLDMRSMDFKSNSAVAWSNKSDFACANAFNNSIIPEDTFFPSPESSCDVKLVEKSFETDTNLNFQNLSVIGFRILLLKVAGFNLLMTLRLWSSRAKRSGSGVKQTLNFDLLKLAGDVESNPGPSRGHMTEYKPTVRLATRDDVPRAVRTLAAAFADYPATRHTVDPDRHIERVTELQELFLTRVGLDIGKVWVADDGAAVAVWTTPESVEAGAVFAEIGPRMAELSGSRLAAQQQMEGLLAPHRPKEPAWFLATVGVSPDHQGKGLGSAVVLPGVEAAERAGVPAFLETSAPRNLPFYERLGFTVTADVEVPEGPRTWCMTRKPGA
# B2: 22072 (protein)
# chain: MALPVTALLLPLALLLHAARPQLQLQESGPGLVKPSETLSLTCTVSGDSISSGDYYWGWIRQPPGKGLEWIGHIYYSGVTYYNPSLKSRVTISVDTSRNQFSLKLSSVTAADTAVYYCTREDSSNWRSRGQGTLVTVSSLEGQPKANPTVTLFPPSSEELQANKATLVCLISDFYPGAVTVAWKADGSPVKAGVETTKPSKQSNNKYAASSYLSLTPEQWKSHRSYSCQVTHEGSTVEKTVAPTECSPIKTDVITMDPKDNCSKDANDTLLLQLTNTSAYYMYLLLLLKSVVYFAIITCCLLRRTAFCCNGEKSRAKRSGSGATNFSLLKQAGDVEENPGPTSMDWIWRILFLVGAATGAHSFEVQLLESGGGLIQPGGSLRLSCAASGFTFSSHAMTWVRQAPGKGLEWVSAISGSGDYTHYADSVKGRFTISRDNSKNTVYLQMNSLRAEDSAVYYCAKDEDGGSLLGHRGQGTLVTVSSTRIQNPDPAVYQLRDSKSSDKSVCLFTDFDSQTNVSQSKDSDVYITDKCVLDMRSMDFKSNSAVAWSNKSDFACANAFNNSIIPEDTFFPSPESSCDVKLVEKSFETDTNLNFQNLSVIGFRILLLKVAGFNLLMTLRLWSSRAKRSGSGVKQTLNFDLLKLAGDVESNPGPSRGHMTEYKPTVRLATRDDVPRAVRTLAAAFADYPATRHTVDPDRHIERVTELQELFLTRVGLDIGKVWVADDGAAVAVWTTPESVEAGAVFAEIGPRMAELSGSRLAAQQQMEGLLAPHRPKEPAWFLATVGVSPDHQGKGLGSAVVLPGVEAAERAGVPAFLETSAPRNLPFYERLGFTVTADVEVPEGPRTWCMTRKPGA
# B3: 22154 (protein)
# chain: MALPVTALLLPLALLLHAARPACEVQLLESGGGLIQPGGSLRLSCAASGFTFSSHAMTWVRQAPGKGLEWVSAISGSGDYTHYADSVKGRFTISRDNSKNTVYLQMNSLRAEDSAVYYCAKDEDGGSLLGHRGQGTLVTVSSGTGGGGSGGGGSGGGGSEFSYVLTQPPSVSVAPGQTARITCGGNNIGGKSVHWYQQPPGQAPVVVVYDDSDRPSGIPERFSGSNSGNTATLTISRVEAGDEAVYYCQVWDSSSDHVVFGGGTKLTVLLEGQPKANPTVTLFPPSSEELQANKATLVCLISDFYPGAVTVAWKADGSPVKAGVETTKPSKQSNNKYAASSYLSLTPEQWKSHRSYSCQVTHEGSTVEKTVAPTECSGRADCGFTSESYQQGVLSATILYEILLGKATLYAVLVSALVLMAMVKRKDSRGRAKRSGSGATNFSLLKQAGDVEENPGPTSATMDWIWRILFLVGAATGAHSGPQVQLQESGGGLAQAGGSLRLSCAASGRTFSMGWFRQAPGKEREFVAAITYSGGSPYYASSVRGRFTISRDNAKNTVYLQMNSLKPEDTAVYYCAANPTYGSDWNAENWGQGTQVTVSSGSGGGGSGGGGSGGGGSFEQLQLQESGPGLVKPSETLSLTCTVSGGSISSSSYFWGWIRQPPGKGLEWIGSIYYSGITYYNPSLKSRVTISVDTSKNQFSLKLSSVTAADTAVYYCARHDGAVAGLFDYWGQGTLVTVSSATRASTKGPSVFPLAPSSKSTSGGTAALGCLVKDYFPEPVTVSWNSGALTSGVHTFPAVLQSSGLYSLSSVVTVPSSSLGTQTYICNVNHKPSNTKVDKRVEPKSCIPEDTFFPSPESSCDVKLVEKSFETDTNLNFQNLSVIGFRILLLKVAGFNLLMTLRLWSSRAKRSGSGVKQTLNFDLLKLAGDVESNPGPSRGHMTEYKPTVRLATRDDVPRAVRTLAAAFADYPATRHTVDPDRHIERVTELQELFLTRVGLDIGKVWVADDGAAVAVWTTPESVEAGAVFAEIGPRMAELSGSRLAAQQQMEGLLAPHRPKEPAWFLATVGVSPDHQGKGLGSAVVLPGVEAAERAGVPAFLETSAPRNLPFYERLGFTVTADVEVPEGPRTWCMTRKPGA
# B4: 22067 (protein)
# chain: MALPVTALLLPLALLLHAARPQLQLQESGPGLVKPSETLSLTCTVSGDSISSGDYYWGWIRQPPGKGLEWIGHIYYSGVTYYNPSLKSRVTISVDTSRNQFSLKLSSVTAADTAVYYCTREDSSNWRSRGQGTLVTVSSLEAAAKEDLKNVFPPEVAVFEPSEAEISHTQKATLVCLATGFYPDHVELSWWVNGKEVHSGVCTDPQPLKEQPALNDSRYCLSSRLRVSATFWQNPRNHFRCQVQFYGLSENDEWTQDRAKPVTQIVSAEAWGRADCGFTSESYQQGVLSATILYEILLGKATLYAVLVSALVLMAMVKRKDSRGRAKRSGSGATNFSLLKQAGDVEENPGPTSMDWIWRILFLVGAATGAHSFEVQLLESGGGLIQPGGSLRLSCAASGFTFSSHAMTWVRQAPGKGLEWVSAISGSGDYTHYADSVKGRFTISRDNSKNTVYLQMNSLRAEDSAVYYCAKDEDGGSLLGHRGQGTLVTVSSTRIQNPDPAVYQLRDSKSSDKSVCLFTDFDSQTNVSQSKDSDVYITDKCVLDMRSMDFKSNSAVAWSNKSDFACANAFNNSIIPEDTFFPSPESSCDVKLVEKSFETDTNLNFQNLSVIGFRILLLKVAGFNLLMTLRLWSSRAKRSGSGVKQTLNFDLLKLAGDVESNPGPSRGHMTEYKPTVRLATRDDVPRAVRTLAAAFADYPATRHTVDPDRHIERVTELQELFLTRVGLDIGKVWVADDGAAVAVWTTPESVEAGAVFAEIGPRMAELSGSRLAAQQQMEGLLAPHRPKEPAWFLATVGVSPDHQGKGLGSAVVLPGVEAAERAGVPAFLETSAPRNLPFYERLGFTVTADVEVPEGPRTWCMTRKPGA
# Tested on: L363 cells
# Assay: JNG assay, co-culture with L363 cells
# Assay type: cell-based
# Conditions: co-culture with L363
# Procedure, shortened: (§1)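 Read-out is NFAT-driven GFP measured by flow cytometry after ~4–18 h co-culture of SAR-expressing JNG cells with target cells (E:T about 1:2). SARs were introduced by lentiviral spinfection and selected with puromycin or blasticidin when possible; scores (+/- to 5+ ≈ 5–50% GFP+) are relative to parental JNG cells.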
row,Molecule,NFAT-GFP ASSAY: L363
1,B1,"+/- (refer to approximately 5%, 10%, 20%, 30%, 40% and 50% GFP positive cells)"
2,B2,"+ (refer to approximately 5%, 10%, 20%, 30%, 40% and 50% GFP positive cells)"
3,B3,"2+ (refer to approximately 5%, 10%, 20%, 30%, 40% and 50% GFP positive cells)"
4,B4,"+ (refer to approximately 5%, 10%, 20%, 30%, 40% and 50% GFP positive cells)"

# Tested on: RAJI cells
# Assay: JNG assay, co-culture with RAJI cells
# Assay type: cell-based
# Conditions: JNG cells expressing construct, co-culture with Raji
# Procedure, shortened: as §1
row,Molecule,NFAT-GFP ASSAY: Raji
1,B1,"+/- (refer to approximately 5%, 10%, 20%, 30%, 40% and 50% GFP positive cells)"
2,B2,"+ (refer to approximately 5%, 10%, 20%, 30%, 40% and 50% GFP positive cells)"
3,B3,"4+ (refer to approximately 5%, 10%, 20%, 30%, 40% and 50% GFP positive cells)"
4,B4,"+/- (refer to approximately 5%, 10%, 20%, 30%, 40% and 50% GFP positive cells)"

# Tested on: Nalm6 cells
# Assay: JNG assay, co-culture with Nalm6 cells
# Assay type: cell-based
# Conditions: co-culture with Nalm6
# Procedure, shortened: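 Scoring uses % GFP+ reporter cells above the parental control, where +/-, +, 2+, 3+, 4+ and 5+ correspond to about 5, 10, 20, 30, 40 and 50%. Effectors were SAR-expressing Jurkat NFAT-GFP cells cocultured with targets (E:T ~1:2, ~4–18 h).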
row,Molecule,NFAT-GFP ASSAY: Nalm6
1,B1,"+/- (refer to approximately 5%, 10%, 20%, 30%, 40% and 50% GFP positive cells)"
2,B2,"+/- (refer to approximately 5%, 10%, 20%, 30%, 40% and 50% GFP positive cells)"
3,B3,"+ (refer to approximately 5%, 10%, 20%, 30%, 40% and 50% GFP positive cells)"
4,B4,"+/- (refer to approximately 5%, 10%, 20%, 30%, 40% and 50% GFP positive cells)"
